Measurements: publication PMC9482650, “Quantitative fragmentomics allow affinity mapping of interactomes” (Nature Communications, 2022)

T1: CARD11, Q9BXL7
T1 sequence (Q9BXL7 662-765, limits assumed, looked up): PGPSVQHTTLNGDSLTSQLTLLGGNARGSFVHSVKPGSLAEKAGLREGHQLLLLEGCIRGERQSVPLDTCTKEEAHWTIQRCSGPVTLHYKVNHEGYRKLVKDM

T2: MPDZ_5, O75970
T2 sequence (O75970 695-796, limits assumed, looked up): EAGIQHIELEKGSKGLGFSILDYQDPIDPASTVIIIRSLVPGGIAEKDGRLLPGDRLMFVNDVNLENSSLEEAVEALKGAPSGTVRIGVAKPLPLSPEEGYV

T3: SIPA1L2, Q9P2F8
T3 sequence (Q9P2F8 945-1036, limits assumed, looked up): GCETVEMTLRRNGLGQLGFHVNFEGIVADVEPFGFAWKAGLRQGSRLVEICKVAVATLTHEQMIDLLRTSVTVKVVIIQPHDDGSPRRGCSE

T4: HTRA4, P83105
T4 sequence (P83105 378-476, limits assumed, looked up): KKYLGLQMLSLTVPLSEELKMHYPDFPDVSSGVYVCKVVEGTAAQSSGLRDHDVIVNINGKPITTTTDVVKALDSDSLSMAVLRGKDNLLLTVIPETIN

T5: FRMPD1, Q5SYB0
T5 sequence (Q5SYB0 52-145, limits assumed, looked up): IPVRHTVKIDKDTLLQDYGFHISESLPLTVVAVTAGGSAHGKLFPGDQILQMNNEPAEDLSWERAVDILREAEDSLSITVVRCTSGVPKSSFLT

T6: MPP2, Q14168
T6 sequence (Q14168 180-250, limits assumed, looked up): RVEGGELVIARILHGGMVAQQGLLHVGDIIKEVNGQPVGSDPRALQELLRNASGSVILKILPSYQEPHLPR

T7: NHERF3_4, Q5T2W1
T7 sequence (Q5T2W1 373-468, limits assumed, looked up): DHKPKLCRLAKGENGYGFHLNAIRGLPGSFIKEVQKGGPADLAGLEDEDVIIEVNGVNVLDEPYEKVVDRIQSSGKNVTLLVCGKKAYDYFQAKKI

T8: LRRC7, Q96NW7
T8 sequence (Q96NW7 1440-1537, limits assumed, looked up): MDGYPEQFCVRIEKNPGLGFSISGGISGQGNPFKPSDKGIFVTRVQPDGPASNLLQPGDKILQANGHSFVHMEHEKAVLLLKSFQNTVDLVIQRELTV

T9: SNTB1, Q13884
T9 sequence (Q13884 107-205, limits assumed, looked up): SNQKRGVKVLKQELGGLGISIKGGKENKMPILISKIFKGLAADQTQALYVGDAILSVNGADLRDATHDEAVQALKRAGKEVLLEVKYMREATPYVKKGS

T10: SNTG2, Q9NY99
T10 sequence (Q9NY99 68-166, limits assumed, looked up): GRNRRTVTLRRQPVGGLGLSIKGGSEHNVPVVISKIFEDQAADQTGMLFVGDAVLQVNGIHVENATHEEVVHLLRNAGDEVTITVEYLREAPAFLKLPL

T11: PTPN13_1, Q12923
T11 sequence (Q12923 1088-1188, limits assumed, looked up): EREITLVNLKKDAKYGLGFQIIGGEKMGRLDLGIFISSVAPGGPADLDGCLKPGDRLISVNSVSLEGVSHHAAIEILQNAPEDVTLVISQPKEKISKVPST


Legend:
Test in all cases: holdup assay
Set-up in all cases: key: below the threshold = too weak to quantify, mostly under pKd 3.1 to 4
Conditions in all cases: plain residues with an end cap or a label only (N-terminal biotin on a linker: ado-ado)
MAGI3_2, Q5TCQ9 = target: MAGI3_2, Q5TCQ9
CARD11, Q9BXL7 = target: T1, CARD11, Q9BXL7
MPDZ_5, O75970 = target: T2, MPDZ_5, O75970
DLG4_3, P78352 = target: DLG4_3, P78352
SIPA1L2, Q9P2F8 = target: T3, SIPA1L2, Q9P2F8
HTRA4, P83105 = target: T4, HTRA4, P83105
Inadl_1, Q8NI35 = target: Inadl_1, Q8NI35
Inadl_5, Q8NI35 = target: Inadl_5, Q8NI35
GRIP2_3, Q9C0E4 = target: GRIP2_3, Q9C0E4
FRMPD1, Q5SYB0 = target: T5, FRMPD1, Q5SYB0
DLG4_2, P78352 = target: DLG4_2, P78352
NHERF4_1, Q86UT5-2 = target: NHERF4_1, Q86UT5-2
MPP2, Q14168 = target: T6, MPP2, Q14168
GRASP, Q7Z6J2 = target: GRASP, Q7Z6J2
HTRA1, Q92743 = target: HTRA1, Q92743
NHERF2_2, Q15599 = target: NHERF2_2, Q15599
FRMPD2_2, Q68DX3 = target: FRMPD2_2, Q68DX3
TJP1_3, Q07157 = target: TJP1_3, Q07157
NHERF3_4, Q5T2W1 = target: T7, NHERF3_4, Q5T2W1
LRRC7, Q96NW7 = target: T8, LRRC7, Q96NW7
SNTB1, Q13884 = target: T9, SNTB1, Q13884
PICK1, Q9NRD5 = target: PICK1, Q9NRD5
LAP2, Q96RT1 = target: LAP2, Q96RT1
SNTG2, Q9NY99 = target: T10, SNTG2, Q9NY99
PTPN13_1, Q12923 = target: T11, PTPN13_1, Q12923
DLG1_2, Q12959 = target: DLG1_2, Q12959
Sequence of DLG1_2, Q12959 (Q12959 314-412): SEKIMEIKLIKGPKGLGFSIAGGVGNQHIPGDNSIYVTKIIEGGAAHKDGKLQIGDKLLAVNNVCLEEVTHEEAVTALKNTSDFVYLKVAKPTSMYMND

Sequence of FRMPD2_2, Q68DX3 (Q68DX3 944-1038): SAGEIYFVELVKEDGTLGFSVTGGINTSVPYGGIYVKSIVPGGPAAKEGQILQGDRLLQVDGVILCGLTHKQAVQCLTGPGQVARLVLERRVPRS
Sequence of TJP1_3, Q07157 (Q07157 416-512): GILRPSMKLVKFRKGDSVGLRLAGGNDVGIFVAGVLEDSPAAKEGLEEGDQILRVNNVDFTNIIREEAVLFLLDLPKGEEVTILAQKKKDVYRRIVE
Sequence of NHERF2_2, Q15599 (Q15599 142-238): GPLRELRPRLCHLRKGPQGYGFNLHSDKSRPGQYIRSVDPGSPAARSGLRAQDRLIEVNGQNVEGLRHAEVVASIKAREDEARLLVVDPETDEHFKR
Sequence of LAP2, Q96RT1 (Q96RT1 other isoform, or with tags, fused parts or gaps): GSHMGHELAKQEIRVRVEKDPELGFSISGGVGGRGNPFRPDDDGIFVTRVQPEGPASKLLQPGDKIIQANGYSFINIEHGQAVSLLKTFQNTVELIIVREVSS
Sequence of HTRA1, Q92743 (Q92743 360-477): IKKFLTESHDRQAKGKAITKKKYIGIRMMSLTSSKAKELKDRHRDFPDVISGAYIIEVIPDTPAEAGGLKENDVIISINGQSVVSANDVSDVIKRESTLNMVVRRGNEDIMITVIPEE
Sequence of DLG4_3, P78352 (P78352 306-403): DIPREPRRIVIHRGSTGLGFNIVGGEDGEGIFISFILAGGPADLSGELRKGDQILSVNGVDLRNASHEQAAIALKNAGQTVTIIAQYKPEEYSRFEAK
Sequence of GRIP2_3, Q9C0E4 (Q9C0E4 238-339): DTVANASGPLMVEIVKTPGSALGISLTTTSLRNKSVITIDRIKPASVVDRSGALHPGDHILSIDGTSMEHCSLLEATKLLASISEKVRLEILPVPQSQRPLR
Sequence of MAGI3_2, Q5TCQ9 (Q5TCQ9 398-503): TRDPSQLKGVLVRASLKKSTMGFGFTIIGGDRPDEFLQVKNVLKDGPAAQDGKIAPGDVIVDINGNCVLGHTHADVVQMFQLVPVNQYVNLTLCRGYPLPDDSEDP
Sequence of PICK1, Q9NRD5 (Q9NRD5 17-115): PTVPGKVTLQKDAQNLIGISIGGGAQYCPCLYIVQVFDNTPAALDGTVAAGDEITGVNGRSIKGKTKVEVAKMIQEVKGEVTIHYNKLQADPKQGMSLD
Sequence of DLG4_2, P78352 (P78352 155-259): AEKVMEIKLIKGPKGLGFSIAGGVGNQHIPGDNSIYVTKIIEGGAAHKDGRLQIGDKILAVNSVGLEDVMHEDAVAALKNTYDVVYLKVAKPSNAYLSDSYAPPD
Sequence of GRASP, Q7Z6J2 (Q7Z6J2 96-193): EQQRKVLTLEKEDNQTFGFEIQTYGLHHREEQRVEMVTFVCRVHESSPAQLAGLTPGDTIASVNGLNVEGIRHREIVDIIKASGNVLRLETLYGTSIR
Sequence of Inadl_1, Q8NI35 (Q8NI35 113-229): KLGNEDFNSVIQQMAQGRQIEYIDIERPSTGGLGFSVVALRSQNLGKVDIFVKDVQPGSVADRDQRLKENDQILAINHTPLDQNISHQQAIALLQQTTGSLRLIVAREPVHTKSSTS
Sequence of Inadl_5, Q8NI35 (Q8NI35 673-780): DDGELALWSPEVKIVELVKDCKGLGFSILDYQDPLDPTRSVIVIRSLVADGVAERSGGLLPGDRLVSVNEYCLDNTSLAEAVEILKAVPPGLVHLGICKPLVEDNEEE
Sequence of NHERF4_1, Q86UT5-2 (Q86UT5 other isoform, or with tags, fused parts or gaps): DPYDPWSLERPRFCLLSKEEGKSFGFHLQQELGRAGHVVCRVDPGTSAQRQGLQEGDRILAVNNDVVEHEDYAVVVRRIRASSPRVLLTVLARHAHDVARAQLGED

Row | pKd (MAGI3_2, Q5TCQ9) | pKd (CARD11, Q9BXL7) | pKd (MPDZ_5, O75970) | pKd (DLG4_3, P78352) | pKd (SIPA1L2, Q9P2F8) | pKd (HTRA4, P83105) | pKd (Inadl_1, Q8NI35) | pKd (Inadl_5, Q8NI35) | pKd (GRIP2_3, Q9C0E4) | pKd (FRMPD1, Q5SYB0) | pKd (DLG4_2, P78352) | pKd (NHERF4_1, Q86UT5-2) | pKd (MPP2, Q14168) | pKd (GRASP, Q7Z6J2) | pKd (HTRA1, Q92743) | pKd (NHERF2_2, Q15599) | pKd (FRMPD2_2, Q68DX3) | pKd (TJP1_3, Q07157) | pKd (NHERF3_4, Q5T2W1) | pKd (LRRC7, Q96NW7) | Binder | further results
1 | below the threshold | below the threshold | below the threshold | below the threshold | below the threshold | below the threshold | below the threshold | below the threshold | below the threshold | below the threshold | below the threshold | 4.28 | below the threshold | 4.06 | below the threshold | 5.02 | below the threshold | below the threshold | 5.69 | below the threshold | DQPLEKSTKL [AKAP10, O43572] | pKd (SNTB1, Q13884): 3.99; pKd (PICK1, Q9NRD5): below the threshold; pKd (LAP2, Q96RT1): below the threshold; pKd (SNTG2, Q9NY99): 3.64; pKd (PTPN13_1, Q12923): below the threshold; pKd (DLG1_2, Q12959): below the threshold
2 | 5.07 | below the threshold | below the threshold | 4.87 | below the threshold | 4.74 | below the threshold | below the threshold | below the threshold | below the threshold | 5.28 | below the threshold | below the threshold | 4.63 | 4.96 | below the threshold | 4.06 | below the threshold | 3.58 | 3.6 | RELVMRVTTV [MARCHF4, Q9P2E8] | pKd (SNTB1, Q13884): 5.11; pKd (PICK1, Q9NRD5): below the threshold; pKd (LAP2, Q96RT1): 3.79; pKd (SNTG2, Q9NY99): 4.64; pKd (PTPN13_1, Q12923): below the threshold; pKd (DLG1_2, Q12959): 5.41
3 | below the threshold | 3.63 | below the threshold | below the threshold | below the threshold | below the threshold | 3.5 | below the threshold | below the threshold | below the threshold | below the threshold | below the threshold | below the threshold | 3.48 | 4.15 | below the threshold | below the threshold | below the threshold | below the threshold | below the threshold | GQSVDLVFPV [AKIP1, Q9NQ31] | pKd (SNTB1, Q13884): below the threshold; pKd (PICK1, Q9NRD5): below the threshold; pKd (LAP2, Q96RT1): below the threshold; pKd (SNTG2, Q9NY99): below the threshold; pKd (PTPN13_1, Q12923): below the threshold; pKd (DLG1_2, Q12959): below the threshold
